From patent publication US7807629 (ALCON RESEARCH, dated 2010)
Square brackets hold non-standard residues; d marks the D form. Ends that are not written are not given here. Hyp = O=C(O)[C@@H]1C[C@@H](O)CN1

T1: human bradykinin B2 receptor (human, UniProt P30411 1-391)
T1 sequence (looked up): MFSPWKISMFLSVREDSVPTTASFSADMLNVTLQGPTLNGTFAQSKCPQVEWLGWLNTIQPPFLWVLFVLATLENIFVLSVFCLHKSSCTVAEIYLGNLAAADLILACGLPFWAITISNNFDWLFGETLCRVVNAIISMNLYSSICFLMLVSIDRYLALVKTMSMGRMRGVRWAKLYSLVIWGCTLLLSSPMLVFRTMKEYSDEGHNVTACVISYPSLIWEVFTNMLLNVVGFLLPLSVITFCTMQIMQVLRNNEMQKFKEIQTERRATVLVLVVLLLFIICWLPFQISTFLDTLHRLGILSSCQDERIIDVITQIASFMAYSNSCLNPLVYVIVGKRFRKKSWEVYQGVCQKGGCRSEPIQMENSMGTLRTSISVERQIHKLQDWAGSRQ

B1: Met-Lys-BK (peptide)
peptide: MKRPPGFSPFR
B2: Lys-BK (peptide)
peptide: KRPPGFSPFR
B3: Hyp^3-BK (peptide)
peptide: RP[Hyp]GFSPFR

Molecular target: T1, human bradykinin B2 receptor
Experiment: cell-based or functional assay

| Binder | [Ca^2+]i mobilization, Agonist Potency (EC50), h-CM cells [nM] | [Ca^2+]i mobilization, Agonist Potency (EC50), h-NPE cells [nM] | [Ca^2+]i mobilization, Agonist Potency (EC50), h-TM cells [nM] |
| --- | --- | --- | --- |
| B1 | 16.1 | 125 | 6.5 |
| B2 | 3.2 | 19.6 | 1.9 |
| B3 | – | 6 | 0.9 |
